From publication PMC11467860
Read-outs that look alike come from different tables or passages of the source.

B1: pre-miR-21 (structured_RNA)
RNA: UAGCUUAUCAGACUGAUGUUGACUGUUGAAUCUCAUGGCAACACCAGUCGAUGGGCUGUC
modifications: 5' phosphate
B2: snord37 (structured_RNA)
RNA: AUUCGUGAUGACUGAUCAUUUCUUCACUUUGACCAGAUGUCUACUGAAGAAAGCCUGCGUCUGAGG

Columns and labels:
Experiment in all cases: EMSA
[1] = biological target: Dicer S839A (Homo sapiens, UniProt Q9UPY3 1-1922, S839A)
[2] = biological target: T1, Dicer S839F (Homo sapiens, UniProt Q9UPY3 1-1922, S839F)
[3] = biological target: T1, Dicer S839F; remark: listed apart in the source

T1 sequence (Q9UPY3 whole entry S839F): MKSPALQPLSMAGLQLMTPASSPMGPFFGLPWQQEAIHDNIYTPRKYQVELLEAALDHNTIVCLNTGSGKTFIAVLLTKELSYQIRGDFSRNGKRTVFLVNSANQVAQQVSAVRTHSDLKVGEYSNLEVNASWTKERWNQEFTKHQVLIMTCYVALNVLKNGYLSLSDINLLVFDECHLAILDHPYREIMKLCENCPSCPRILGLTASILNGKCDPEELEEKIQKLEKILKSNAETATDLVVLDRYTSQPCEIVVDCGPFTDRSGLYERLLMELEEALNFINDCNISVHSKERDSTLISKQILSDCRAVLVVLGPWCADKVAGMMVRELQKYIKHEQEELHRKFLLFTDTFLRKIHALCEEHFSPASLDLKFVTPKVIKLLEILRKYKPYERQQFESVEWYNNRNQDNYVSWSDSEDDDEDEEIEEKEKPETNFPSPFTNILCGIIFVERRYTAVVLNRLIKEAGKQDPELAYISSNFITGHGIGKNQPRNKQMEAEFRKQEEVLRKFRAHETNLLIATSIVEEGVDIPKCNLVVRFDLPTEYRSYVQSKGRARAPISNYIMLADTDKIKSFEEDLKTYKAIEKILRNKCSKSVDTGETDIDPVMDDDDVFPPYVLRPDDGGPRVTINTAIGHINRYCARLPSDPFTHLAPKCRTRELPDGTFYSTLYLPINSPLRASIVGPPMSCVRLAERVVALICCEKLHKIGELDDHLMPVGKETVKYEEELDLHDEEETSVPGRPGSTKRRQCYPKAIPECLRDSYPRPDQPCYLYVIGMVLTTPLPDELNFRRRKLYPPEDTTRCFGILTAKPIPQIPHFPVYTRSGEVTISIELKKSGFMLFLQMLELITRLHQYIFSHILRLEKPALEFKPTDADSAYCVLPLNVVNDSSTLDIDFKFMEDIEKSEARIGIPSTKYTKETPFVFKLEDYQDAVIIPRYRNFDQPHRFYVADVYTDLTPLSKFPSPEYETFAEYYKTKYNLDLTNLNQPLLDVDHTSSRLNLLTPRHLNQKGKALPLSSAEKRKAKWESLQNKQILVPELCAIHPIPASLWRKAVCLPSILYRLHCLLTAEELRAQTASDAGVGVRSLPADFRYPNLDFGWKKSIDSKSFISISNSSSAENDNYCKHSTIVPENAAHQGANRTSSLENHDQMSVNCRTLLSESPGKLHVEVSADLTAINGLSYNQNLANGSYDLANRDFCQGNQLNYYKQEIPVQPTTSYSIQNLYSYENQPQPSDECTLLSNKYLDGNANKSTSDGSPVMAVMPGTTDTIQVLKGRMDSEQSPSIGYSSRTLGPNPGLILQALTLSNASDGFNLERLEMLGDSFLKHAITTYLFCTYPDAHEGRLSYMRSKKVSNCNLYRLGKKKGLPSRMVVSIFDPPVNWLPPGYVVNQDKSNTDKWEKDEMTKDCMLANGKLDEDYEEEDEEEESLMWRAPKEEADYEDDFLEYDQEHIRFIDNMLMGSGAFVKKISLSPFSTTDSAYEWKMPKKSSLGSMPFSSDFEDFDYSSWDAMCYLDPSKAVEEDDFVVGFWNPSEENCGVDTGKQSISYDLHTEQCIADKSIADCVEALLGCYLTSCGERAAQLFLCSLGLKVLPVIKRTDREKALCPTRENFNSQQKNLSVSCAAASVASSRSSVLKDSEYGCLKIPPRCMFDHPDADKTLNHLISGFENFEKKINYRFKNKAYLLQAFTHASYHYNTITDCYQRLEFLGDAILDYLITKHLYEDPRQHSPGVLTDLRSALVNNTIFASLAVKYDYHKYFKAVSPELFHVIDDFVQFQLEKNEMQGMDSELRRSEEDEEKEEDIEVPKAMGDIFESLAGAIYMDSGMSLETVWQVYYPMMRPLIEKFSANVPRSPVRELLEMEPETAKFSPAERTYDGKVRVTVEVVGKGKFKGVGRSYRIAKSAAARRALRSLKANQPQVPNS
Chain of Dicer S839A (Q9UPY3 whole entry S839A): as the sequence (Q9UPY3 whole entry S839F) above, with F839A counted along it

Binder	binding result [1]	binding result [2]	binding result [3]
B1	binds	no binding	
B2			binds
